In article PMC10241002 (Autophagy, 2022):
Changes are numbered by the printed parent chain. Names and notes keep the numbering of the source.

Molecular target: the molecule itself
Test: single-molecule fluorescence stoichiometry analysis

B1: Atg9-GFP (purified, GFP-3xFLAG fusion) (natural protein, S. cerevisiae, UniProt Q12142 1-997, looked up)
chain: MERDEYQLPNSHGKNTFLSRIFGLQSDEVNPSLNSQEMSNFPLPDIERGSSLLHSTNDSREDVDENDLRVPESDQGTSTEEEDEVDEEQVQAYAPQISDGLDGDHQLNSVTSKENVLETEKSNLERLVEGSTDDSVPKVGQLSSEEEEDNEFINNDGFDDDTPLFQKSKIHEFSSKKSNTIEDGKRPLFFRHILQNNRPQRDTQKLFTSSNAIHHDKDKSANNGPRNINGNQKHGTKYFGSATQPRFTGSPLNNTNRFTKLFPLRKPNLLSNISVLNNTPEDRINTLSVKERALWKWANVENLDIFLQDVYNYYLGNGFYCIILEKILNICTLLFVVFVSTYMGHCVDYSKLPTSHRVSDIIIDKCYSNSITGFTKFFLWMFYFFVILKIVQLYFDVQKLSELQNFYKYLLNISDDELQTLPWQNVIQQLMYLKDQNAMTANVVEVKAKNRIDAHDVANRIMRRENYLIALYNSDILNLSLPIPLFRTNVLTKTLEWNINLCVMGFVFNESGFIKQSILKPSQREFTREELQKRFMLAGFLNIILAPFLVTYFVLLYFFRYFNEYKTSPGSIGARQYTPIAEWKFREYNELYHIFKKRISLSTTLANKYVDQFPKEKTNLFLKFVSFICGSFVAILAFLTVFDPENFLNFEITSDRSVIFYITILGAIWSVSRNTITQEYHVFDPEETLKELYEYTHYLPKEWEGRYHKEEIKLEFCKLYNLRIVILLRELTSLMITPFVLWFSLPSSAGRIVDFFRENSEYVDGLGYVCKYAMFNMKNIDGEDTHSMDEDSLTKKIAVNGSHTLNSKRRSKFTAEDHSDKDLANNKMLQSYVYFMDDYSNSENLTGKYQLPAKKGYPNNEGDSFLNNKYSWRKQFQPGQKPELFRIGKHALGPGHNISPAIYSTRNPGKNWDNNNNGDDIKNGTNNATAKNDDNNGNNDHEYVLTESFLDSGAFPNHDVIDHNKMLNSNYNGNGILNKGGVLGLVKEYYKKSDVGR
binding result: binds

B2: Atg9^F627A-GFP (purified, GFP-3xFLAG fusion) (natural protein, S. cerevisiae, UniProt Q12142 1-997, looked up)
chain: B1 chain with F627A
stoichiometry N: 3
